# Reference: patent US20210347908A1 (ELPISCIENCE SUZHOU BIOPHARMA, published 2021)
# Substitutions are numbered along the chain they refer to.
# T1: full length cyno SIRPα stably expressed on CHOK1 cells (cynomolgus monkey, UniProt A0A2K5VYQ9 31-507)
# T1 construct: whole, on cells; also called CHOK1-cyno SIRPα-2A2 cells; CHOK1-cyno SIRPα
# T1 sequence: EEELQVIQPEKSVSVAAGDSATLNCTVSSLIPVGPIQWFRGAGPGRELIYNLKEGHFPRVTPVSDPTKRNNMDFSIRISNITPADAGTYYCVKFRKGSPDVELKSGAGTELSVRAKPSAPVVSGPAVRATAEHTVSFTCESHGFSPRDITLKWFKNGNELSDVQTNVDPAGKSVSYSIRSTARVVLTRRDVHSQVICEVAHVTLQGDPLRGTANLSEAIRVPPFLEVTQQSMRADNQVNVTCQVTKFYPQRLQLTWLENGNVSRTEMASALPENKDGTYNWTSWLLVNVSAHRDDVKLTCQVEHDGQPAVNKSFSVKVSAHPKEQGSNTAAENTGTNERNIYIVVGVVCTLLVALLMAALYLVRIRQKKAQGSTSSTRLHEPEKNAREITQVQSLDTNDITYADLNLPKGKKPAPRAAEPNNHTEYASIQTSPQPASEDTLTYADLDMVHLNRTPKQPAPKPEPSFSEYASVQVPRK
# B1: Antibody 022 (hybridoma antibody) (antibody, V domains shown)
# VH: QIQLVQSGPELKKPGETVKISCKASGYTFTDYAMHWVKQAPGKGLKWMGWKNTETGESTYAEDFKGRFAFFLETSASTAYLQINNVKNEDTATYFCARGGYGSNYVMDYWGQGTSVIVSS
# VL: DIQMTQSSSSFSVSLGDRVTITCKASEDIYNRLAWYQQKPGNAPRLLISGATSLETGVPSRFSGSGSGKDYTLSITSLQTEDVATYYCQQYWNSPRTFGGGTKLEIK
# notes: mouse hybridoma antibody
# B2: Antibody 060 (hybridoma antibody) (antibody, V domains shown)
# VH: QVQLKESGPGLVAPSESLSITCTVSGFSLTNYDISWIRQSPGKGLEWLGVIWTGGDTNFNSAFMSRLSISKDKSKSQVFLKLNSLQTDDTAIYYCVRVQYFGGSYGPMDYWGQGISVTVSS
# VL: DIQMTQASSYLSVSLGGRVTITCEASDHINDWLAWYQQTPGNAPRLLISGATSLETGVPSRFSGSGSGKDYTLSITSLQTEDIATYYCQQYWNTPLTFGAGTRLELK
# notes: mouse hybridoma antibody
# B3: reference antibody HEFLB (antibody, V domains shown)
# VH: EVQLVQSGAEVKKPGESLRISCKASGYSFTSYWVHWVRQMPGKGLEWMGNIDPSDSDTHYSPSFQGHVTLSVDKSISTAYLQLSSLKASDTAMYYCVRGGTGTLAYFAYWGQGTLVTVSS
# VL: DVVMTQSPLSLPVTLGQPASISCRSSQSLVHSYGNTYLYWFQQRPGQSPRLLIYRVSNRFSGVPDRFSGSGSGTDFTLKISRVEAEDVGVYYCFQGTHVPYTFGGGTKVEIK
# B4: Antibody 035 (hybridoma antibody) (antibody, V domains shown)
# VH: QIQLVQSGPELRKPGETVKISCKASGYSFTNYAMNWVKQAPGKVLKWMGFINTYTGEPTYADDFKGRFAFSLETSASTAYLQINNLKNEDTATYFCTRTRGYYDFDGGAFDYWGQGTSLTVSS
# VL: DIVMTQSQKFMSTSIGDRVSVTCKASQNVGTHLAWYQQKPGQSPKALIFSASYRYIGVPDRFTGSGSGTDFTLTITNVQSEDLAEYFCQQYNTYPLTFGAGTKLELK
# notes: mouse hybridoma antibody
# B5: Antibody 074 (hybridoma antibody) (antibody, V domains shown)
# VH: QVQLQQPRAELVKPGASVMLSCKASGYTFSSYWIHWVRQGPGQGLEWIGLIHPNSGNTDCSETFKNKATLTVDTSSSTAYMQLSSLASEDSAVYYCARDGASYDWFVHWGQGTLVTVSA
# VL: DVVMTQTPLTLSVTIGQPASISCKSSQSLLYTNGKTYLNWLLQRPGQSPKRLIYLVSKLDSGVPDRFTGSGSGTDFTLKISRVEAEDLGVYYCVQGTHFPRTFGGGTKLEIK
# notes: mouse hybridoma antibody
# B6: Antibody 001 (hybridoma antibody) (antibody, V domains shown)
# VH: EVKLEESGGGLVQPGGSMKLSCVASGFTFRNYWMNWVRQSPERGLEWIAEISLKSNTYATHYAESVKGRFAISRDGSKSSFYLQMNDLRAEDTGIYYCTTFTKVVADWHLDVWGAGTTVTVSS
# VL: DVLMTQTPLSLPVSLGDQASISCRSSQNIVHSNGNTYLEWYLQKPGQSPKLLIYKVSNRFSGVPDRFSGSGSGTDFTLRISRVEAEDLGVYYCFQGSHVPFTFGSGTKLEIK
# notes: mouse hybridoma antibody
# B7: Antibody 002 (hybridoma antibody) (antibody, V domains shown)
# VH: B6 VH with K19I, S52T, G76D, A90P
# VL: B6 VL with V56I, K112Q
# notes: mouse hybridoma antibody
# B8: Antibody 032 (hybridoma antibody) (antibody, V domains shown)
# VH: B6 VH with K3R, A24V, S52T, G76D, A90P
# VL: B6 VL with S14N
# notes: mouse hybridoma antibody
# B9: chimeric antibody 060c (antibody, V domains shown)
# VH: B2 VH
# VL: B2 VL
# B10: chimeric antibody 055c (antibody, V domains shown)
# VH: EVKLVESEGGLVQPGDSMKLSCTASGFTFSDYFMTWIRQVPEKGLEWIANVNYDGRSTYYLDSLKSRFIISRDNANNILYLQMSSLKSEDTATYYCAREGSQTPLYAVDYWGQGTSVTVSS
# VL: DIVMTQSQKFMSTTVGDRVNITCKASQNVGTAVAWYQQKPGQSPKLLIYLASNRYTGVPDRFTGSGSGTDFTLTVSDMRSEDLADYFCQQYSIYPFTFGSGTKLEIK
# B11: chimeric antibody 074c (antibody, V domains shown)
# VH: B5 VH
# VL: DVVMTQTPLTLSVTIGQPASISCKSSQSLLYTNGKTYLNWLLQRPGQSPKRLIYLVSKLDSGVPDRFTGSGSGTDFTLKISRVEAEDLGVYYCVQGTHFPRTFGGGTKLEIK
# B12: chimeric antibody 001c (antibody, V domains shown)
# VH: B6 VH
# VL: B6 VL
# B13: chimeric antibody 002c (antibody, V domains shown)
# VH: B6 VH with K19I, S52T, G76D, A90P
# VL: B6 VL with V56I, K112Q
# B14: chimeric antibody 032c (antibody, V domains shown)
# VH: B6 VH with K3R, A24V, S52T, G76D, A90P
# VL: B6 VL with S14N
# Target: T2, biotin labeled soluble human SIRPα v1 ECD recombinant protein (human, UniProt P78324 31-373, biotin labeled)
# T2 construct: extracellular domain
# Assay: competitive ELISA; competitor 002
# Protocol: (§1) Competitive ELISA assay was used for epitope binning of 9 functional antibodies. Briefly excessive competitor antibody and biotin labeled soluble human SIRPα v1 ECD recombinant protein were co-incubated with ELISA microplate coated antibody. After washing, HRP-SA was added and incubated at 37° C. for 1 hour. Then, […] of TMB solution (Biotechnology) was added. After incubation for 15 minutes at room temperature, the reaction was stopped by the addition of […] of 1N HCl. OD 450 nm was read. Competition ratio was calculated. The antibodies that can compete each other for binding to SIRPα have the similar binding epitope.
# T2 sequence (P78324 31-373): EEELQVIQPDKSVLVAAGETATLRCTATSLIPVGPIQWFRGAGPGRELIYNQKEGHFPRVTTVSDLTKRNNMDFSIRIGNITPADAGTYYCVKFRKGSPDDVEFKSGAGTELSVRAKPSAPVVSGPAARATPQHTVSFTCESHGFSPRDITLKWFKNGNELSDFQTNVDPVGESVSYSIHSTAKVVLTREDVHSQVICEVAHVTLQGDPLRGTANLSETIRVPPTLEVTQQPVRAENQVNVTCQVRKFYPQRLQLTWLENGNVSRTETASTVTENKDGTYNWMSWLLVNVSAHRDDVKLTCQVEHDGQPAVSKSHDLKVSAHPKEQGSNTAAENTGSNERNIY
row,% Competition [%],Binder
1,6,B1
2,1,B2
3,81,B3
4,86,B4
5,14,B5
6,95,B6
7,90,B7
8,93,B8

# Target: T3, Fc tagged human SIRPγ ECD recombinant protein (human, UniProt Q9P1W8 29-360)
# T3 construct: range 1-360; cloned range includes the signal peptide; also called hSIRPγ; not shown: human IgG Fc region (hFc) of the pCPC vector
# Assay: ELISA
# In short: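 Antibodies were incubated on plates coated with recombinant SIRP ECD antigens for 1 h at 37° C. Detection used HRP anti-mouse or anti-human IgG (1 h, 37° C), then TMB for 15 min at room temperature, stopped with 1N HCl. EC₅₀ was derived from OD 450 nm.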
# T3 sequence (Q9P1W8 29-360 limits assumed, form in doubt): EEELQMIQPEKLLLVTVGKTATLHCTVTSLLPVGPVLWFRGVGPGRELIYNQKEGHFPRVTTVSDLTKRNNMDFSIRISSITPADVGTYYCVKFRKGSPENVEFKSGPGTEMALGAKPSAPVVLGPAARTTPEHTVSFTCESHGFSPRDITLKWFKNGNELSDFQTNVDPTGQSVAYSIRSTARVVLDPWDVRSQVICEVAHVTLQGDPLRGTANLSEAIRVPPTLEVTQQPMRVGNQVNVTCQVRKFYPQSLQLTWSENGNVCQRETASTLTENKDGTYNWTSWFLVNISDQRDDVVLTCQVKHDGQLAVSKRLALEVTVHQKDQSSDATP
row,EC50 [nM],Binder
1,0.76,B1
2,2.22,B4

# Target: T2, biotin labeled soluble human SIRPα v1 …
# Assay: competitive ELISA; competitor 074
# Protocol: as §1
row,% Competition [%],Binder
1,-1,B1
2,-1,B2
3,2,B3
4,6,B4
5,92,B5
6,5,B6
7,-10,B7
8,6,B8

# Target: T1, full length cyno SIRPα stably expressed …
# Assay: FACS on CHOK1 cells
# In short: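 Antibodies bound to 2×10⁵ CHOK1 cells stably expressing full-length SIRPα, 1 h at 4 °C, then fluorescent anti-mouse or anti-human IgG secondary, 1 h at 4 °C. EC50 derived from geometric median fluorescence intensity.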
binding result,MFI at 10 nM [MFI],Binder
no binding (tested: 10 nM),–,B9
–,8060,B10
–,12200,B11
–,24900,B12
–,17100,B13
–,19000,B14

# Target: T2, biotin labeled soluble human SIRPα v1 …
# Assay: competitive ELISA; competitor KWAR23
# Protocol: as §1
row,% Competition [%],Binder
1,1,B1
2,-4,B2
3,94,B3
4,-6,B4
5,-14,B5
6,83,B6
7,71,B7
8,69,B8

# Target: T2, biotin labeled soluble human SIRPα v1 …
# Assay: competitive ELISA; competitor HEFLB
# Protocol: as §1
row,% Competition [%],Binder
1,1,B1
2,-3,B2
3,88,B3
4,2,B4
5,-14,B5
6,36,B6
7,7,B7
8,14,B8

# Target: T2, biotin labeled soluble human SIRPα v1 …
# Assay: competitive ELISA; competitor 001
# Protocol: as §1
row,% Competition [%],Binder
1,2,B1
2,0,B2
3,89,B3
4,92,B4
5,33,B5
6,96,B6
7,94,B7
8,94,B8

# Target: T4, Fc tagged human SIRPβ ECD recombinant protein (human, UniProt O00241 30-371)
# T4 construct: range 1-371; cloned range includes the signal peptide; also called hSIRPβ; not shown: human IgG Fc region (hFc) of the pCPC vector
# Assay: ELISA
# In short: (§2)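 Read-out: OD 450 nm after TMB development (15 min, RT) and 1N HCl stop; EC₅₀ calculated. Antibodies bound to coated antigen 1 h at 37° C., detected via HRP anti-mouse/anti-human IgG secondary, 1 h at 37° C.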
# T4 sequence (O00241 30-371 limits assumed, form in doubt): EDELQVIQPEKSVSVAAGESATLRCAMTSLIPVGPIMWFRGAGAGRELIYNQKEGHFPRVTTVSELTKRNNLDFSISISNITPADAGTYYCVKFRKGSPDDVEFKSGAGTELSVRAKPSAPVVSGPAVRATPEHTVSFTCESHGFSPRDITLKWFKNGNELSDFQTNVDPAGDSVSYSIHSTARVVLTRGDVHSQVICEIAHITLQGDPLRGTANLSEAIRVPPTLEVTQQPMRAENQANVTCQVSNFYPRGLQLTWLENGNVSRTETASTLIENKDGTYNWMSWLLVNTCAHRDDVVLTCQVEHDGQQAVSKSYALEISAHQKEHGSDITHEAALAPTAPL
row,EC50 [nM],Binder
1,0.24,B9
2,0.08,B3
3,0.11,B11
4,0.12,B12
5,0.11,B13
6,0.12,B14

# Target: T5, Fc tagged human SIRPα v2 ECD recombinant protein (human)
# T5 construct: range 1-369; cloned range M1-R369 includes the signal peptide; also called hSIRPα V2
# Assay: ELISA
# In short: as §2
row,EC50 [nM],Binder
1,0.11,B10
2,0.14,B11
3,0.09,B12
4,0.06,B13
5,0.11,B14

# Target: T2, biotin labeled soluble human SIRPα v1 …
# Assay: competitive ELISA; competitor 29-AM4-5
# Protocol: as §1
row,% Competition [%],Binder
1,2,B1
2,-5,B2
3,70,B3
4,50,B4
5,-19,B5
6,92,B6
7,87,B7
8,83,B8
